The chains are these.
B1: CDKL4 (parent)
chain: AVKKFVESEDDPVVKKIALREIRM
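Also: lentivirally expressed fusions sorted by FACS into six bins by GFP to DsRed ratio, PSI derived from sequencing read proportions per bin multiplied by bin number.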

The variants in the data set derive from B1. The data set is described as follows: protein stability index of a GFP-peptide fusion (GPS, HEK-293T) (PSI 1-6); higher = more stable. The following applies: c terminus: a fixed tail appended.
Consider AVKKFMESEDDPVVKKIALREIRM [V6M], for which the protein stability index was found to be 3.23.

For the variant AVKKFTESEDDPVVKKIALREIRM [V6T], the protein stability index is 3.16.

Take AVKKFPESEDDPVVKKIALREIRM [V6P]: the protein stability index came to 3.78.

With AVKKFWESEDDPVVKKIALREIRM [V6W], the protein stability index worked out at 2.57.

For the variant AVKKFDESEDDPVVKKIALREIRM [V6D], the protein stability index is 3.65.

Regarding AVKKFEESEDDPVVKKIALREIRM [V6E], the protein stability index worked out at 3.72.

In the case of AVKKFVESYDDPVVKKIALREIRM [E9Y], the protein stability index was found to be 1.74.

In the case of AVKKFVESGDDPVVKKIALREIRM [E9G], the protein stability index amounted to 2.43.

With AVKKFVESWDDPVVKKIALREIRM [E9W], the protein stability index came to 2.38.

With AVKKFVESHDDPVVKKIALREIRM [E9H], the protein stability index is 2.71.

In the case of AVKKFVESTDDPVVKKIALREIRM [E9T], the protein stability index came out at 3.02.

AVKKFVESNDDPVVKKIALREIRM [E9N]: the protein stability index was determined as 2.56.

Consider AVKKFVESQDDPVVKKIALREIRM [E9Q], for which the protein stability index is 3.19.

Consider AVKKFVESCDDPVVKKIALREIRM [E9C], for which the protein stability index is 2.23.

As to AGKKFVESEDDPVVKKIALREIRM [V2G], the protein stability index was determined as 3.82.

AEKKFVESEDDPVVKKIALREIRM [V2E]: the protein stability index amounted to 4.01.

Take ADKKFVESEDDPVVKKIALREIRM [V2D]: the protein stability index was found to be 3.71.

In the case of AQKKFVESEDDPVVKKIALREIRM [V2Q], the protein stability index is 3.56.

Take AWKKFVESEDDPVVKKIALREIRM [V2W]: the protein stability index is 2.1.

For AHKKFVESEDDPVVKKIALREIRM [V2H], the protein stability index was determined as 3.03.

Consider AAKKFVESEDDPVVKKIALREIRM [V2A], for which the protein stability index is 3.8.

With AYKKFVESEDDPVVKKIALREIRM [V2Y], the protein stability index came to 2.52.

On to AVKKFVESEDDNVVKKIALREIRM [P12N], for which the protein stability index turned out to be 3.08.

Take AVKKFVESEDDDVVKKIALREIRM [P12D]: the protein stability index came to 3.22.

Regarding AVKKFVESEDDTVVKKIALREIRM [P12T], the protein stability index is 2.76.

With AVKKFVESEDDWVVKKIALREIRM [P12W], the protein stability index worked out at 1.82.

On to AVKKFVESEDDFVVKKIALREIRM [P12F], for which the protein stability index came to 2.66.

For the variant AVKKFVESEDDPVMKKIALREIRM [V14M], the protein stability index is 2.69.

Consider AVKKFVESEDDPVLKKIALREIRM [V14L], for which the protein stability index is 2.89.

As to AVKKFVESEDDPVSKKIALREIRM [V14S], the protein stability index stood at 2.98.

As to AVKKFVESEDDPVPKKIALREIRM [V14P], the protein stability index is 3.12.

Take AVKKFVESEDDPVDKKIALREIRM [V14D]: the protein stability index came out at 3.48.

In the case of AVKKFVESEDDPVTKKIALREIRM [V14T], the protein stability index was 3.26.

With AVKKFVESEDDPVEKKIALREIRM [V14E], the protein stability index is 4.1.

With AVKKFVESEDDPVCKKIALREIRM [V14C], the protein stability index turned out to be 3.74.

Regarding AVKKFVESEDDPVYKKIALREIRM [V14Y], the protein stability index amounted to 2.54.

For AVKKFVESEDDPVVKTIALREIRM [K16T], the protein stability index was 3.11.

Regarding AVKKFVESEDDPVVKQIALREIRM [K16Q], the protein stability index turned out to be 3.48.

For the variant AVKKFVESEDDPVVKLIALREIRM [K16L], the protein stability index turned out to be 2.63.

On to AVKKFVESEDDPVVKSIALREIRM [K16S], for which the protein stability index was 3.23.

In the case of LVKKFVESEDDPVVKKIALREIRM [A1L], the protein stability index was determined as 1.99.

Consider RVKKFVESEDDPVVKKIALREIRM [A1R], for which the protein stability index is 2.45.

In the case of EVKKFVESEDDPVVKKIALREIRM [A1E], the protein stability index turned out to be 3.85.

Consider FVKKFVESEDDPVVKKIALREIRM [A1F], for which the protein stability index worked out at 2.21.

Consider KVKKFVESEDDPVVKKIALREIRM [A1K], for which the protein stability index worked out at 2.91.

As to MVKKFVESEDDPVVKKIALREIRM [A1M], the protein stability index came out at 2.69.

CVKKFVESEDDPVVKKIALREIRM [A1C]: the protein stability index stood at 2.48.

Regarding PVKKFVESEDDPVVKKIALREIRM [A1P], the protein stability index is 3.17.

AVKKFVESEDDPVVKKIALNEIRM [R20N]: the protein stability index turned out to be 3.74.

As to AVKKFVESEDDPVVKKIALEEIRM [R20E], the protein stability index was found to be 3.74.

On to AVKKFVESEDDPVVKKIALKEIRM [R20K], for which the protein stability index was 3.67.

Regarding AVKKFVESEDDPVVKKIALTEIRM [R20T], the protein stability index stood at 2.88.

Take AVKKFVESEDDPVVKKIALMEIRM [R20M]: the protein stability index turned out to be 2.13.

Consider AVKKFVESEDDPVVKKIALPEIRM [R20P], for which the protein stability index was 2.87.

Turning to AVKKFVESEDDPVVKKIALHEIRM [R20H], the protein stability index came out at 2.63.

As to AVKKFVESEDDPVVKKIALCEIRM [R20C], the protein stability index was determined as 2.92.

Turning to AVKKFVESEDDPVVKKIALREKRM [I22K], the protein stability index is 4.29.

As for AVKKFVESEDDPVVKKIALRECRM [I22C], the protein stability index was determined as 3.32.

Consider AVKKFVESEDDPVVKKIALRELRM [I22L], for which the protein stability index turned out to be 3.11.

With AVKKFVESEDDPVVKKIALREYRM [I22Y], the protein stability index was 3.35.

As for AVKKFVESEDDPVVKKIALREWRM [I22W], the protein stability index came to 2.92.

As for AVKKFVESEDDPVVKKIALRENRM [I22N], the protein stability index amounted to 4.22.

Consider AVKKFVESEDDPVVKKIALRETRM [I22T], for which the protein stability index turned out to be 4.01.

On to AVKKFVESEDDPVVKKIALREDRM [I22D], for which the protein stability index turned out to be 4.

On to AVKEFVESEDDPVVKKIALREIRM [K4E], for which the protein stability index stood at 3.55.

As for AVKQFVESEDDPVVKKIALREIRM [K4Q], the protein stability index was 3.17.

As to AVKFFVESEDDPVVKKIALREIRM [K4F], the protein stability index was 2.13.

As to AVKRFVESEDDPVVKKIALREIRM [K4R], the protein stability index was 2.7.

As for AVKYFVESEDDPVVKKIALREIRM [K4Y], the protein stability index is 2.25.

Turning to AVKGFVESEDDPVVKKIALREIRM [K4G], the protein stability index came to 3.5.

As for AVKNFVESEDDPVVKKIALREIRM [K4N], the protein stability index came to 2.92.

Consider AVKAFVESEDDPVVKKIALREIRM [K4A], for which the protein stability index was found to be 3.07.

Regarding AVKIFVESEDDPVVKKIALREIRM [K4I], the protein stability index amounted to 1.88.

In the case of AVKSFVESEDDPVVKKIALREIRM [K4S], the protein stability index is 3.15.

In the case of AVKMFVESEDDPVVKKIALREIRM [K4M], the protein stability index came out at 2.34.

For AVKKFVEEEDDPVVKKIALREIRM [S8E], the protein stability index stood at 3.07.

On to AVKKFVEMEDDPVVKKIALREIRM [S8M], for which the protein stability index turned out to be 3.04.

Consider AVKKFVEGEDDPVVKKIALREIRM [S8G], for which the protein stability index was determined as 2.68.

For the variant AVKKFVEAEDDPVVKKIALREIRM [S8A], the protein stability index was determined as 2.92.

Turning to AVKKFVECEDDPVVKKIALREIRM [S8C], the protein stability index was determined as 2.54.

For AVKKFVEFEDDPVVKKIALREIRM [S8F], the protein stability index was found to be 2.08.

Consider AVKKFVEQEDDPVVKKIALREIRM [S8Q], for which the protein stability index is 3.27.

Consider AVKKFVEHEDDPVVKKIALREIRM [S8H], for which the protein stability index turned out to be 3.02.

With AVKKFVEKEDDPVVKKIALREIRM [S8K], the protein stability index amounted to 3.15.

Turning to AVKKFVEYEDDPVVKKIALREIRM [S8Y], the protein stability index came out at 3.17.

For AVKKFVEVEDDPVVKKIALREIRM [S8V], the protein stability index was 2.64.

Consider AVKKFVESEDPPVVKKIALREIRM [D11P], for which the protein stability index stood at 2.81.

Turning to AVKKFVESEDIPVVKKIALREIRM [D11I], the protein stability index amounted to 2.58.

As for AVKKFVESEDAPVVKKIALREIRM [D11A], the protein stability index was determined as 2.61.

For AVKKFVESEDTPVVKKIALREIRM [D11T], the protein stability index came out at 3.

For AVKKQVESEDDPVVKKIALREIRM [F5Q], the protein stability index was found to be 3.01.

With AVKKPVESEDDPVVKKIALREIRM [F5P], the protein stability index was determined as 4.07.

Turning to AVKKLVESEDDPVVKKIALREIRM [F5L], the protein stability index stood at 2.98.

Consider AVKKMVESEDDPVVKKIALREIRM [F5M], for which the protein stability index worked out at 3.33.
